Test results taken from paper PMC3437054.

B1: 40/65-nt ptDNA-TAMRA (mixed)
DNA 1: ATTTCCTTCAGCAGATAGGAACCATACTGATTCACATGGC
DNA 2: TAGTTAGAACCTAAGCATATTAGTAGCCATGTGAATCAGTATGGTTCCTATCTGCTGAAGGAAAT
modifications: 3' amino linker on primer

Experiments:
[1] = target: PCNA (Saccharomyces cerevisiae) (UniProt P15873); conditions: cited from earlier work
[2] = target: Replication factor C (RFC-A/B/C/D/E) (Saccharomyces cerevisiae, UniProt P38630;P40339;P38629;P40348;P38251 1-861;1-323;1-340;1-353;1-354); test: stopped-flow TAMRA fluorescence
[3] = target: Replication factor C (RFC-A/B/C/D/E);PCNA (wild type) (Saccharomyces cerevisiae;Saccharomyces …, UniProt P38630;P40339;P38629;P40348;P38251;P15873 1-861;1-323;1-340;1-353;1-354;1-258, |); test: fluorescence intensity

| Molecule | Kd [1] [nM] | binding result [2] | Kd [3] [nM] |
| --- | --- | --- | --- |
| RFC (from UniProt P38630) | 1 |  |  |
| B1 |  | binds | 1 |
